The values that follow come from publication PMC9160799, “PET Imaging of Acidic Tumor Environment With ^89Zr-labeled pHLIP Probes” (Frontiers in Oncology, 2022).

“Also recorded” adds a separate entry of the source. Read-outs that look alike come from different tables or passages of the source. Square brackets hold non-standard residues; d marks the D form. Peptide text beside a SMILES is read from it. * marks the point of attachment. X1 = CC(=O)N(O)CCCCCNC(=O)CCC(=O)N(O)CCCCCNC(=O)CCC(=O)N(O)CCCCCNC(=O)CCC(=O)N(O)CCCCCNC(=S)Nc1ccc(NC(=S)*)cc1

Data set [1] in a line: Post-mortem biodistribution, RM-1 tumor model. Particulars: male, athymic nude, mouse, iv, 1.2 nmol, total radioactivity; for tissue uptake at 48 h: RM-1, male athymic nude mice, 48 h p.i., i.v. 1.2 nmol, 7.4 MBq, gamma counting, mean ± S.D., n=4. The data set is classed as in vivo, male athymic nude mice. As to the method: The media were provided by the MSK Media Preparation Core. […] Another aliquot was diluted with the medium so that 50 µL contained 1×10^6 cells.
(§1) The imaging and biodistribution studies were performed with male (RM-1 model) and female (4T1 model) athymic nude mice and the kidney-blocking experiments were performed with female SCID mice received from Charles River Laboratories (Stone Ridge, NY). After arrival, the mice were kept in the MSK vivarium for one week before any experimental handling was performed. The animals were allowed free access to water and food, and all animal care and experimental procedures were approved by the Institutional Animal Care and Use Committee (IACUC). For the subcutaneous allografts, a 1-to-1 ratio of Corning Matrigel Matrix and the cell solution was prepared and stored on ice for the injections. Each mouse received a subcutaneous injection of 100 µL (50 µL cell solution, viability > 90%, + 50 µL Matrigel) into the flank on the level of the right shoulder. The injections were performed under anesthesia (2% isoflurane, Baxter Healthcare, Deerfield, IL, USA).
The mice were intravenously injected (tail vein) with the radiolabeled pHLIP conjugates (1.2 nmol, 7.4 MBq/200 µCi, 100 µL, in sterile filtered PBS). The activity of the syringe prior to injection and after injection was used to determine the percent of injectate administered.
For the biodistribution studies the tumor-bearing mice were randomized before the injections. Only mice with suitable tumors (150–300 mm^3) were utilized. An exception was made for the 120-hour timepoint, for which only mice with smaller tumors (150 mm^3) were selected. The mice were grouped in cohorts of four. At the respective timepoint, the mice were euthanized (by CO2 asphyxiation, followed by cervical dislocation) and their blood was collected by cardiac puncture as a terminal procedure, followed by quick removal of the tumors. After this, the other organs/samples were collected. […] The exact activities of all samples of one mouse were determined by an Capintec® CRC-55tR dose calibrator. These decay-corrected measurements were used to determine a calibration factor and calibrate all counts to the corresponding activities. Activity concentrations were calculated as percentage injected dose per tissue weight (%ID/g wet tissue). All data was processed and visualized using Origin 8.5.

Data set [2] relates to kidney uptake of [89Zr]Zr-DFOsqa-Lys-Var3. Kind of data set: Kidney-blocking study (PET imaging). Type of data set: in vivo, healthy female SCID mice. Particulars: drug IV 30 min before 7.4 MBq [89Zr]Zr-DFOsqa-Lys-Var3 (1.2 nmol); two doses per drug, n=2 each; PET 24 h p.i. vs control mice. The procedure:
as §1, with “USA). Palpable tumors of similar size (100–300 mm^3) developed 5–8 days after grafting.” for “USA).”
PET images were obtained at the respective timepoints with the mice under anesthesia (2% isoflurane) on a microPET Focus 120 (Concorde Microsystems) or an Inveon PET-CT (Siemens) rodent scanner. All images were analyzed using the Medical Imaging Data Examiner Amide (version 0.9.0) or the Inveon reconstruction software suite. The counting rates in the reconstructed images were converted to percent of injected dose per weight (%ID/g) by applying a system-specific calibration factor. At the final timepoint, the remaining mice were euthanized (by CO2 asphyxiation, followed by cervical dislocation) and their tumors were resected for histological analysis.
Additional experiments were performed to investigate the influence of various kidney-uptake blockers and diuretics. Healthy female SCID mice received a “blocking agent” 30 minutes prior to the injection of [^89Zr]Zr-DFOsqa-Lys-Var3 (7.4 MBq/200 µCi, 1.2 nmol). […] The experimental set-up can be found in Table S6 .
Table S6. Summary of the kidney-blocking study. Healthy female SCID mice (2 mice per experiment/ dosage + 2 control mice without treatment, total of 22 mice) received a blocking agent intravenously 30 minutes prior to the injection of 7.4 MBq/200 µCi [89Zr]Zr-DFOsqa-Lys-Var3 (1.2 nmol pHLIP).
The drug dose was calculated as weight of drug (mg) per weight of mouse (kg). A potential kidney […]
calibrated images to the control mice (24 hours post injection). No drug led to a significant reduction […]
drug (IV 30 min before dose [mg/kg] effect on kidney mechanism of action [89Zr]Zr-pHLIP) (n=2) uptake […]
and water from the body; acts as a diuretic […]
organic anion transporter; blocks the uptake of organic anions […]
tubule via inhibition of the Na/Cl symporter; acts as a diuretic […]
increased – serum levels decreased

In the case of `CC[C@@H](C)[C@@H](NC(=O)[C@H]1CCCN1C(=O)[C@@H](CC(N)=O)NC(=O)[C@@H](CCC(N)=O)NC(=O)[C@@H](CCC(=O)O)NC(=O)[C@@H](CCCCNC(=S)Nc1ccc(NC(=S)NCCCCCN(O)C(=O)CCC(=O)NCCCCCN(O)C(=O)CCC(=O)NCCCCCN(O)C(C)=O)cc1)NC(=O)[C@@H](C)NC(C)=O)C(=O)N[C@H](Cc1ccc(O)cc1)C(=O)N[C@H](Cc1c[nH]c2ccccc12)C(=O)N[C@H](C)C(=O)N[C@H](CCCNC(=N)N)C(=O)N[C@H](Cc1ccc(O)cc1)C(=O)N[C@H](C)C(=O)N[C@H](CC(=O)O)C(=O)N[C@H](Cc1c[nH]c2ccccc12)C(=O)N[C@H](CC(C)C)C(=O)N[C@H](Cc1ccccc1)C(=O)N[C@@H](C(=O)N[C@@H](C(=O)N1CCC[C@@H]1C(=O)N[C@H](CC(C)C)C(=O)N[C@H](CC(C)C)C(=O)N[C@H](CC(C)C)C(=O)N[C@H](CC(C)C)C(=O)N[C@H](CC(=O)O)C(=O)N[C@H](CC(C)C)C(=O)N[C@H](C)C(=O)N[C@H](CC(C)C)C(=O)N[C@H](CC(C)C)C(=O)N[C@@H](C(=O)N[C@H](CC(=O)O)C(=O)N[C@H](C)C(=O)N[C@H](CC(=O)O)C(=O)N[C@H](CCC(=O)O)C(=O)NCC(=O)N[C@@H](C(=O)NCC(=O)O)[C@H](C)O)C(C)C)[C@H](C)O)[C@H](C)O` (89Zr complex, metal not drawn) [DFO-Lys-WT], the tissue uptake at 48 h in data set [1] (blood, read-out: Blood uptake) stood at 0.1 ± 0.03 %ID/g; in data set [1] (tibia, read-out: Tibia uptake), 2.3 ± 0.5 %ID/g.

Consider `CN(C)c1nc(N)c(C(=O)NC(=N)N)nc1Cl` [5-(N,N-dimethyl)amiloride], for which the “effect on kidney uptake” value in data set [2] was “not significant; also recorded: none of these drugs led to a significant reduction of kidney uptake”.

`CC(=O)N[C@H](C)C(=O)N[C@H](CCCCNC(=S)Nc1ccc(NC(=S)NCCCCCN(O)C(=O)CCC(=O)NCCCCCN(O)C(=O)CCC(=O)NCCCCCN(O)C(=O)CCC(=O)NCCCCCN(O)C(C)=O)cc1)C(=O)N[C@H](CC(=O)O)C(=O)N[C@H](CC(=O)O)C(=O)N[C@H](CCC(N)=O)C(=O)N[C@H](CC(N)=O)C(=O)N1CCC[C@@H]1C(=O)N[C@H](Cc1c[nH]c2ccccc12)C(=O)N[C@H](CCCNC(=N)N)C(=O)N[C@H](C)C(=O)N[C@H](Cc1ccc(O)cc1)C(=O)N[C@H](CC(C)C)C(=O)N[C@H](CC(=O)O)C(=O)N[C@H](CC(C)C)C(=O)N[C@H](CC(C)C)C(=O)N[C@H](Cc1ccccc1)C(=O)N1CCC[C@@H]1C(=O)N[C@@H](C(=O)N[C@H](CC(=O)O)C(=O)N[C@@H](C(=O)N[C@H](CC(C)C)C(=O)N[C@H](CC(C)C)C(=O)N[C@H](CC(C)C)C(=O)N[C@H](CC(=O)O)C(=O)N[C@H](CC(C)C)C(=O)N[C@H](CC(C)C)C(=O)N[C@H](Cc1c[nH]c2ccccc12)C(=O)N[C@H](C)C(=O)O)[C@H](C)O)[C@H](C)O` [DFO*-Lys-Var3] (Ac-[dA][dK](X1)[dD][dD][dQ][dN][dP][dW][dR][dA][dY][dL][dD][dL][dL][dF][dP][dT][dD][dT][dL][dL][dL][dD][dL][dL][dW][dA]-OH; C-terminus assumed): the tissue uptake at 48 h in data set [1] (in vivo, read-out: Tibia uptake) was 1.1 ± 0.5 %ID/g.

On to `CC[C@@H](C)[C@@H](NC(=O)[C@H]1CCCN1C(=O)[C@@H](CC(N)=O)NC(=O)[C@@H](CCC(N)=O)NC(=O)[C@@H](CCC(=O)O)NC(=O)[C@@H](CCCCNC(=S)Nc1ccc(NC(=S)NCCCCCN(O)C(=O)CCC(=O)NCCCCCN(O)C(=O)CCC(=O)NCCCCCN(O)C(C)=O)cc1)NC(=O)[C@@H](C)NC(C)=O)C(=O)N[C@H](Cc1ccc(O)cc1)C(=O)N[C@H](Cc1c[nH]c2ccccc12)C(=O)N[C@H](C)C(=O)N[C@H](CCCNC(=N)N)C(=O)N[C@H](Cc1ccc(O)cc1)C(=O)N[C@H](C)C(=O)N[C@H](CC(=O)O)C(=O)N[C@H](Cc1c[nH]c2ccccc12)C(=O)N[C@H](CC(C)C)C(=O)N[C@H](Cc1ccccc1)C(=O)N[C@@H](C(=O)N[C@@H](C(=O)N1CCC[C@@H]1C(=O)N[C@H](CC(C)C)C(=O)N[C@H](CC(C)C)C(=O)N[C@H](CC(C)C)C(=O)N[C@H](CC(C)C)C(=O)N[C@H](CC(=O)O)C(=O)N[C@H](CC(C)C)C(=O)N[C@H](C)C(=O)N[C@H](CC(C)C)C(=O)N[C@H](CC(C)C)C(=O)N[C@@H](C(=O)N[C@H](CC(=O)O)C(=O)N[C@H](C)C(=O)N[C@H](CC(=O)O)C(=O)N[C@H](CCC(=O)O)C(=O)NCC(=O)N[C@@H](C(=O)NCC(=O)O)[C@H](C)O)C(C)C)[C@H](C)O)[C@H](C)O` [DFO-Lys-WT], for which the tissue uptake at 48 h in data set [1] (in vivo, read-out: Brain uptake) stood at 0.03 ± 0.03 %ID/g; in data set [1] (in vivo, read-out: Kidneys uptake), 14.2 ± 1.2 %ID/g; in data set [1] (in vivo, read-out: Liver uptake), 14.8 ± 4.7 %ID/g; in data set [1] (in vivo, read-out: Lungs uptake), 11.5 ± 0.4 %ID/g; in data set [1] (in vivo, read-out: Muscle uptake) it was 0.3 ± 0.08 %ID/g; in data set [1] (in vivo, read-out: Pancreas uptake), 0.9 ± 0.4 %ID/g. For the same molecule, the tissue uptake at 48 h is 1.5 ± 0.2 %ID/g in data set [1] (in vivo, read-out: Skin uptake); 25.8 ± 5.5 %ID/g in data set [1] (in vivo, read-out: Spleen uptake); 1.6 ± 0.1 %ID/g in data set [1] (in vivo, read-out: Tumor uptake). Besides, the tissue to tissue ratio at 48 h in data set [1] (tumor / muscle, RM-1 model, 48-hour timepoint, read-out: tumor-to-muscle uptake-ratio) was found to be 5.5 ± 1.5.

`CC(=O)Nc1nnc(S(N)(=O)=O)s1` [acetazolamide]: in data set [2], the “effect on kidney uptake” value was “not significant; also recorded: none of these drugs led to a significant reduction of kidney uptake”.
